Laboratory results taken from the DeepSol protein solubility set.

Experiment: soluble on expression in E. coli; label from the status in PepcDB or PDB records

Sequence | soluble on expression in E. coli
MSLEYNLTTTEIELVNVTASWDEGIGELFEKIKQENKANGQPNGDAGLFFTNLYVTPVLKNISLYLEKGQMLAVAGSTGSGKSSLLMMILGELVPSEGKIRHSGRISFSPQTSWIMPGTIRDNILFGLTYDEFRYTSVIKACQLEEDLALLPEKDKTPLMEGGVTLSGGQRARIGLARAVYKDADLYLLDSPFTHLDIVTEKEIFERCLCKLLSSKTRIVVTSKLEHLKRADKILLLHNGVCYFYGSFSELQAKRPDFSSLLLGLEAYDNIKAERRSSILTETLRRVSIDESTVFRGEGHHHHHH | soluble
MSLFDPNDYKDEIRQIARDKANLELDLKGDIGWSLFPWLGLELHDTSIASAATPTKPFADLQMLGLSVRVLPLLRKDVQMSAIRVEGLSLDLVRDKQGKGNWENIGKPAQPQAPAAPSETPPAADGKGAQAQAPEQAPQNDSPRTPIKLDIDSLNVNNARVTYTDEASGKQYNVEGIELSTGAIREGSSIPLKLNAYLGTNQPVVRVKTELTGNLRFDTALRRYQLEDARLSGEASGEPLQGKTATFSAQGQLLLDQSAQIAEWNGLKLSVNQLRALGELKARELDKDTKFSGGLSIAPMNLREFLAGIGVTLPAMADANTLGKFELNTRLAGSRNSLNLEDLKLGLDDTAFSGRFGIADFARQSLRAQLKGDKLDLDRYLPAKAKQAQDAASATRKAEVDATVASAAQGNTPLPEKPTRQAWSDAPLLPIATLRKLDLDVALNFGRLTVEKLPIDDASLKLRGQGGVISLDDMRGGLYNGRFNAKANLDVRQDSAVLTATKHIANVPVERLLEAQGKKPPVKGLLDLDADIRTSGNSEKSWIDHLNGNARFSLINGVLPDANLEQQLCQGIATLNRKALAGTHGGKDTPFRELKGSLNFTNGVASNPDLKVAIPGLAVSGHGDIDLRVLGMDYRIGVEIQGDKSDMPDPACQVNQRYAGIEWPLLCRGPLELGAKACRLDKEGMGKVAAKLAGNRLNEKLEEKLGDKVSPELKDALKGLFNRKEGHHHHHH | soluble
MSLFIDKQTVERHFSKSAHLYDGVNHVQRKMAHRLVQLLDEKRRDAKDEPRAILDIGCGTGWLTRECLKSFPQATIDAVDLSKQMLEVAEKNVSSHPNVQFIQGDIEKMVREKPSAKTYDVIVANAVFQWLDKPTETVAQLRSWLKPNGLLLFSTFGPDTFYELHDSFQLAAKQLGIIDERRGLDYLSKTEWKRTLDGLFAELTIHEEKAIESYATVEQFLHTVKKMGATYSQSSRPLSKRYYQLMKEIYEQRYRTEDSIPATYDCLYVLCQAEGHHHHHH | soluble
MSLFILKNVTAVQLEPTLVLEGVDIAIEGSLIKAVGPNLRALYPQANYREMGGKLVMPGIVCAHNHFYSGLSRGIMANIAPCPDFISTLKNLWWRLDRALDEESLYYSGLICSLEAIKSGCSAVIDHHASPNFIKGSLNVLRKGFVEAGLRGMTCFETTDRNGGLAELQAGVEENILFAQAIDAAKAKGREPYLVEAHIGAHAPFTVPDEGLAMLREAVQVTGRGLHIHVAEDRYDMAHGHHHHGKEPIARLDEFDLVDSKTLIAHGIYLSPADIELLNSRDAFLVHNARSNMNNHVGYNMHLPEYRNLALGTDGIGSDMLEELKFAYFKHKDAGGALWPDSFARFLWNGNTLLERNFGAKFGRLEPGYKADLTICDYAAPTPLAPRNLGGHLAFGMGSSSVNSVMVEGRMVYQDREFAFDVEPIYQQASKVASRLWQRMDQLAEGHHHHHH | soluble
MSLFIRDNHLHTHHSYDSDANFTDYLTHFDGEIVTTEHYDLSNPYTKQDDVPDYESYSHEVEKLNLKYGNRIKRGIEIGYYQPRESDILDFLDGKDYDLKLLSVHHNGVNDYLDDEVAEMDKANIIQEYLDKLEYAVGRVDADVLAHFDYGFRLFDVTVDELKAYENQLKRIFKKMIANDLAFELNSKSMYLYHHEGLYRYVLALVKDLGCRKYSIGSDGHKLEHFRLNFDKIQELLREFEITEDMEGHHHHHH | not soluble
MSLFLITNRKLVNREKYFNTIEEAGKYGVKNIILREKDLSTKELIKIYIKIKELVTEETNIIINSNIEATMILKEKFIHLSFKDFKRNLEEVKSLQVGVSVHSILEAIEADRLGASYILVSPIFETQCKKGVTPKGINFIKEIKEKVNCNVIALGGINEHNFKEVLGAGADDFACMSLLFMSNNIKKSLYTFKSLEGHHHHHH | not soluble
MSLFLQPLLAKKIIAEVKKMYEREVIIVNTDGLIMAGTNDERVGQFHEGALICAKERRSVIITKEDETRLKGVKAGINLPVFFDHDVISVFGLTGEPAEIQPFGELLRKMTELFIKESRHLEQSQWRERMLESFMIDWLQLKEWSPSFLEKAQLLGVDLSSRRQMILIQGYEWSPHDIEQMARSWKSSYPADLFIRWGNERILINHEVPQHEQRDRLLRKILHICSFANTASSQYTAAGAGRAVASSSLTDSYEQAEKALAVSLKRKTPIFEEDLKLDMCLTEISPGTRNEFPQRVLGKALEHQELMNTIRTFFHHDLSLKQTAEDMHIHINTLRYRLAKAEQLTGLRFDRTEDVVTMYVALYFLDQDTKEGGSHHHHHH | soluble
MSLFSISNLSFIGFLKRIVFSSDSLPGKWEHRKFRFMYILRCSINPVVSIRYYYELRSLPCIEDILAIHPTLPARIHRPYLHKGGRAWTRGQYILEHYRFVQNLPEKYSKFLFPQKSVSLVQFIGKDGENFDIQCSPSGFDREGELMLSLFYNKTVIARLTYSVILTQNGHIAFIGGLQGAPKNTGPDVIRCATRACYGLFPKRIIFEAFCALMKACNVSECLAVSEHSHVFRQLKYWYQKRKTFVAVYSDFWDSVPGKTCGDWYKLPTQVIRKPLTDIPIKKRSDYRKQYALLDYIHETTIRSLDAYPVHSKHQNSNEGHHHHHH | not soluble
MSLGDITISFESSDIDRHLILGVDWLIEGNLYEDAVESSIALSRRFLLNGKVKSLEMFLDEKPIDDLLKNYQLSKIHEMDVDSTEDTSVLEIQQYRYLINIFKQYMEWEKTVKLLNSESNIPSIIEKFQEFFQSTFKLIKTFLVDLTENIDHKDHDILFEIRALYTPYLIMELHKGLVEAASLLRIPRFIKDALNITNLVANEDDKIYLLFQSSGKLKEYLQLVAQTATLTEGHHHHHH | soluble
MSLGDQTLVRELSPLKNKGESTFRMGLYIRDSAAGVGTLTFYDPVSKKYGALGHVISDVDTKKPIVVHDGQIIRSSVTSIDKGSNGDPGEKLASFSNQRNTLGTIEKNSSFGIFGTLTEKDLKNHVSDEALPVTLSNHVKEGPAKILTVVEGEKVEEFDIEIVSSVPQKQPATKGLVIKVTDPKLLNTTGGIVQGMSGSPIIQDGKLVGAVTHVFVNDPTSGYGCHISWMLEEAGITFDQSKAKASEGHHHHHH | soluble
MSLGEAEARVVLNMNTGWAFHRGEVESGGQPGLDDSGWIAAIIPHIMQLEKKHCGGDIIYDGVGWYRRTFRVPSQYKDKQIKISFEGVMNACEVYLNGQKISAHRGGYVGFVTDITTRINWDRDNLLAVRVSAEYDPLTPPGKPQAGMDFYYYSGIYRDVEMVISDPLHITHALEEEEVAGGGIFVTYPVVGKEKAVTHVKAHVRNEGKRKRKAQLRTQLIDKSGKIVACQLTPFRLSAGEAIHLEQNLEIVHPSLWHPYDPNLYTLQNEIVENGKVVDCHTESIGIRTIAYTRDGGFYINGESLYLRGANRHQAFAHIGDAAANSMQERDVIDLKRGGCNAVRAAHYPQDPAFLAACDKYGLLVVECIPGWQYFKNDSTFISRLYEVGKQMIRRDRNHPSVILWETALNESRYPAEIARNLYAIAHIEYPGDQMYTAGDYFGHADRVDCFDVFYKQVSRFPKDGDVMSNYPEDQIAVKPLFCREWGDGVGEKPRVSLMENEEEQLKQCRGRFLQLNGHGYFDWCMLDANPRMGGHFLWSYNDYARGAEQETMFCGIVDINRYPKFSYYMMQSMRDKEISQPGLYDGPMVFIASQNTASRYVSSVNEITVFSNCDEVRLFRNHHLIGKQMRKERTPLYRSIVEKGGSPCYVFNAGTYEAGELVAEGIVDGKVVATHSVRTPEQPRQVKIWLKEENIQPVADGSDMIPVYFKVCDSNGTLVNTSDVRIHISVSGEGSLIGDGIERIGINPQLVEGGVGYALIRTTCRPGKIHISVTADGLRGDTREIVTRRYDGEGHHHHHH | not soluble
MSLGEKSRETSSPWSSTILLVKITSADGLVGYGEAPTTLMTLPVLESMKEVARVFNGKDFFNVERNVFDFYRNSFYLPVSMEATSALSAFEIASWDLIGKQLGTPVYKLLGGEVNQKMRAYANGWYNDCVSPDDFLKKAKEVVKMGFTAMKFDPFGDNYDSITNDGLENARNIVGTLRSELGDKVDLLIEYHGRFSKIAAIKAGMALEEYHPFFYEEPLHPDLDHDLLDLKNYYRVPIALGERVLNKKIFARFISQKLVDIIQPDLTNSGGILEGKKIAAIADGFGIPVAPHNAFGPIQTAATLNLDTTITNFIIQESFEMFWPDWKKKLVSSGYKLENGYFTLTNEPGVCKVNEDIVEKYQVSGMEPFDDKEPPWVVSGTFKPYRQKEGHHHHHH | not soluble
MSLGELLFNRSFENTKPVSESNSWYTCYRGDVKEAKWWHSGYEEPKWYLLADGRKEEKLPLIFNNYWPSAHGKYFLQIDNRKKQIPTLLVQERIYIEKGKGYTVSGLFSSGGYLSEEKYSKESVPVTIAIYKEGDFHTPLSKTELAVNTNQFILYSSSLDATEYEGWCTYTIEVPAGGCVGIDLLSLMADDVIKGWKRESVERIKNELRPRTMRMPGGCFTSLYDWRSGIGPREERPVSYDTWWGCELLNDVGTFELVDLCEAVGAEPFFCVPVMFNNEYSAADWVDFCNNPTNAQRIAYGRTKPLNVKYWELENEPYRRFDAVTYANRCVDFAKAMKAKDPSIKIAVGNYWLFNKKFKEMLEIVGPYVDLITNRGGTPEEMRADIVILDAYNKAHGTDIKLCHTEFRAPVTRNEGNTDGLNQKDTGGEETLFNASIRWGFAMNMVEQYIAYQNMGGSFFTANYTNLSDGWGECLINTPKEGTYLNAPGVAFALLNSLDIAYPQIIEQEKENQDIVIQAAWNKRRDKLTLVVLNFSQNTQPCKIDFSQIKKSFRVRKGMKIAPQSDLSFNTLQHPEEVKVEEGHHHHHH | soluble
MSLGGDQAAGAVLPVTIFTARKFITMERGAPEATAVAVAGKRIVAAGSLAEVKTAVGSRPFTLDETFASKIVMPGLIDQHLHPVLGALTLAVEVIAPEDWVLPGGTHKAAGSADAYQARLKAADAKLDKPDAWLLTWGYHALWHGKLDRAALDAINPTRPIAVWHRSCHEFYLNTPALAALGISEAMTQNQGQASEQSNWREGHFWEGGLNLMMTPMLKVLATPERLAFGLKQMVSYLHANGVTAYMEPGALYTPDMWKLYEQILGAPETPMYATFIADGRGIVDRVGLDGALDAVEQQIAVAPEAPGRKLMFFPGQIKLFADGAIISQLMQMKDGYLDGHQGEWIIPPDELERRARLFWNAGYQIHTHVNGDLGLEKLLDILEKLNAEHPRPDHRSVIVHFANSTEDQVARIKRLGALVSANPYYTTGFADKYSAVGLGPERADAMVRAKSVLDQGVPLSYHSDLPMAPSAPLYLAWCGVNRLTPSGRVAGPEQRVSVDAALRAITIEAAYSWRHEDQLGSIAPGKIANFTVLEQDPYAVPPEQLKDVPIWGTVFEGRVFPVGREGHHHHHH | soluble
MSLGIKMRSVVVKEPGQLNIESRPVPVPGAHEVRVKIAFAGICGSDVHIYHGHNPFAKYPRVIGHEFYGIIDAVGEQVSPARIGERVAVDPVVSCGHCYPCSVGRPNVCTQLQVIGVHRDGGFSDYACVPAKNAWRIPEAISDRQATMVEPFTIAANITAQLQPTAQDIALVYGAGPMGLTIIQALKGVYGVKQVIVVDRIAERLQMARENGADLTLDNTDQPLAEQLAQRQLAPTLVIDAACHPAILQEAILLASPAARIGILGFSGEASTLTQQSITSKEISIFSSRLNSGRFPLVIDWMEKGLIRPEALITHCMPLEQVKEAMEIFANDRKTCCKVLLQLGEGHHHHHH | soluble
